According to patent US20220306762A1 (CRYSTAL BIOSCIENCE, published 2022):
Numbering of substitutions follows the chain as printed. Like-named read-outs stand apart in the source and are kept apart here. Blank lines part the entries; values can stand above or below the binder they belong to.

Columns and labels:
[1] = target: T1, CD38 on Daudi target cells (UniProt P28907 1-300, limits assumed); assay: cell-based or functional assay
[2] = target: T2, His-tagged human CD38 (ACRO Biosystems cat #CD8-H5224) (human, UniProt P28907 43-300); assay: SPR (Carterra LSA), antibody captured by anti-human Fc, His-tagged CD38 injected
T2 construct: Bought His-tagged protein

[3] = target: T3, His-tagged cynomolgus monkey CD38 (ACRO Biosystems cat # CD8-05223 [sic]) (cynomolgus monkey, UniProt Q5VAN0 43-301); assay: as above
T3 construct: Bought His-tagged protein; also called cynomolgus CD38

[4] = target: T1, CD38 on Daudi target cells; assay: cell-based or functional assay; remark: listed apart in the source
[5] = target: T2, His-tagged human CD38 (ACRO Biosystems …); assay: SPR (Carterra LSA), antibody captured by anti-human Fc, His-tagged CD38 injected; IgG by the head of Table 5
[6] = target: T3, His-tagged cynomolgus monkey CD38 (ACRO …); assay: as above
[7] = target: T4, His-tagged human CD38 (ACRO Biosystems CD8-H5224) (human, UniProt P28907 43-300); assay: SPR, IgG
T4 construct: bought protein; used for ELISA coating and as SPR analyte; not shown: His tag

[8] = target: T5, His-tagged cynomolgus monkey CD38 (ACRO Biosystems, CD8-05223 [sic]) (cynomolgus monkey, UniProt Q5VAN0 43-301); assay: SPR, IgG
T5 construct: bought protein; used for ELISA coating and as SPR analyte; not shown: His tag

[9] = target: T6, His-tagged mouse CD38 (ACRO Biosystems CD8-M5223) (mouse, UniProt P56528 45-304); assay: SPR, IgG
T6 construct: bought protein; used for ELISA coating and as SPR analyte; also called Murine; not shown: His tag
T6 sequence (looked up): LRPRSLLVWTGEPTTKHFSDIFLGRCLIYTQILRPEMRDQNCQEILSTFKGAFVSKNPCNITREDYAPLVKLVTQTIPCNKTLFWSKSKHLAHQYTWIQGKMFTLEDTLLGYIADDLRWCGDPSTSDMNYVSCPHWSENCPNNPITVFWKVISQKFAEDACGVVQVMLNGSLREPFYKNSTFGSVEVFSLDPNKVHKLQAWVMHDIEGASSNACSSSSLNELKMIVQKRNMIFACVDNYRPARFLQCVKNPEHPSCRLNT

ADCC EC50 [1]: 20.7 ng/mL
Lowest Remaining Target % [1]: 54%
Max RLU [1]: 1.94e+06 RLU
PBMC ADCC EC50 [1]: 0.411 ng/mL
Kd [2]: 0.02 nM
Kd [3]: 3.08 nM
B1: 40769p1.1.H10 (antibody, V domains shown)
VH: EVQLLESGGGLVQPGGSLRLSCAAFGFTFSDYEMNWVRQAPGKGLEWVSSISITGSWTGYADSVKGRFTISRDNSKNTLYLQMNNLRAEDTAVYYCANYKSYYGMDVWGQGTTVTVSS
VL: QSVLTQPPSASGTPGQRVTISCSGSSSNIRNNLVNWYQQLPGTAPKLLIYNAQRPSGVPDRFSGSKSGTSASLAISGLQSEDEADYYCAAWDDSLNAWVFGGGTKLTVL
notes: Human V regions from transgenic chicken, cloned as scFv-Fc; The variable domains can be found in the listing by the CDRs

Lowest Remaining Target % [4]: 63%
Max RLU [4]: 1.44e+06 RLU
PBMC ADCC EC50 [4]: 0.227 ng/mL
Reporter cell ADCC EC50 [4]: ~12.2 ng/mL
ADCC EC50 [1]: ~12.2 ng/mL
Lowest Remaining Target % [1]: 63%
Max RLU [1]: 1.44e+06 RLU
PBMC ADCC EC50 [1]: 0.227 ng/mL
Kd [5]: 1.46 nM
Kd [6]: 1.12 nM
B2: 40769p2.1.C4 (antibody, V domains shown)
VH: B1 VH with Q13H, F25S, S56D, W57F, G59Y, M105L
VL: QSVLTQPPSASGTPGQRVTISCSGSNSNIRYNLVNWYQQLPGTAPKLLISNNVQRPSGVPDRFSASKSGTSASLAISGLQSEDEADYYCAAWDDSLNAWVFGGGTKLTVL
notes: as for B1

Lowest Remaining Target % [4]: 57%
Max RLU [4]: 1.72e+06 RLU
PBMC ADCC EC50 [4]: 0.293 ng/mL
Reporter cell ADCC EC50 [4]: 25.3 ng/mL
ADCC EC50 [1]: 25.3 ng/mL
Lowest Remaining Target % [1]: 57%
Max RLU [1]: 1.72e+06 RLU
PBMC ADCC EC50 [1]: 0.293 ng/mL
Kd [5]: 3.3 nM
Kd [6]: 7.05 nM
B3: 40769p2.1.F2 (antibody, V domains shown)
VH: B1 VH with A23V, F25S, S30T, D31N, S56N, W57Y, T58I, G59Y, N85D, Y103H
VL: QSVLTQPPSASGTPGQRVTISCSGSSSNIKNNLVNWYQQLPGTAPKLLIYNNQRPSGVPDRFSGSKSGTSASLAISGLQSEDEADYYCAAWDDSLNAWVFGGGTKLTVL
notes: as for B1

Kd [7]: 25.6 nM
Kd [8]: 261 nM
Kd [9]: 1170 nM
B4: 40769p2.1.E1 IgG (antibody, V domains shown)
VH: EVQLLESGGGLIQPGGSLRLSCTASGFDFSSYGMHWVRQAPGKGLEWVAIISDSGGTTYYGDSVKGRFTISRDNSKSTLYLQMNSLRAEDTALYYCASYIMDVWGQGTTVTVSS
VL: QSVLTQPPSASGTPEQRVTISCSGSNSNVGDNAVYWYQQLPGTAPKLLFYGTNRRPSGVPDRFSGSKSGTSASLAISGLQSEDEADYYCAAWDDSLNAWVFGGGTKLTVL
notes: IgG

Kd [7]: 35.5 nM
Kd [8]: 73.8 nM
Kd [9]: 106 nM
B5: 40769p2.1.G4 IgG (antibody, V domains shown)
VH: EVQLLESGGGLVQPGGSLRLSCAASGFTFTSHDMNWVRQAPGKGLEWVSTITTGGNTYYADSVKGRFTISRDNSKNTLYLQMTSLRAEDTAVYYCTKHYSMDVWGQGTTVTVSS
VL: B4 VL with E15G, N26T, G30V, D31F, T52K, N53S, R54Q, S95T, A98G
notes: IgG

Kd [7]: 18.8 nM
Kd [8]: 221 nM
Kd [9]: 1160 nM
B6: 40769p2.2.A5 IgG (antibody, V domains shown)
VH: B4 VH with A49G, S54T
VL: B4 VL with E15G
notes: IgG

Kd [7]: 160 nM
Kd [8]: 316 nM
Kd [9]: 21400 nM
B7: 40769p2.1.H12 IgG (antibody, V domains shown)
VH: B4 VH with A49G, G61A, S77N, T108I
VL: B4 VL with E15G, D31V, A33S, F49I, T52S, N53G, G65V, S95G
notes: IgG

Lowest Remaining Target % [4]: 56%
Max RLU [4]: 1.85e+06 RLU
PBMC ADCC EC50 [4]: 0.273 ng/mL
Reporter cell ADCC EC50 [4]: 9.82 ng/mL
ADCC EC50 [1]: 9.82 ng/mL
Lowest Remaining Target % [1]: 56%
Max RLU [1]: 1.85e+06 RLU
PBMC ADCC EC50 [1]: 0.273 ng/mL
Kd [5]: 2.58 nM
Kd [6]: 3.27 nM
B8: 40769p2.2.A8 (antibody, V domains shown)
VH: EVQLLESGGGLVQPGGSLRLSCAASGFTFSDYWMNWVRQAPGKGLEWVSTISISGGIIYYADSVKGRFTISRDNSKNTLYLQMNSLRAEDTAVYYCAKDNWNDYYGMDVWGQGTTVTVSS
VL: QSVLTQPPSASGTPGQRVTISCSGSTSNIRDNYVYWYQQVPGTAPKLLIYKDDQRPSGVPDRFSGSKSGTSASLAISGLQSDDEADYYCATWDGSLNGRVFGGGTKLTVL
notes: as for B1

Lowest Remaining Target % [4]: 63%
Max RLU [4]: 1.33e+06 RLU
PBMC ADCC EC50 [4]: 0.0245 ng/mL
Reporter cell ADCC EC50 [4]: ~13.2 ng/mL
ADCC EC50 [1]: ~13.2 ng/mL
Lowest Remaining Target % [1]: 63%
Max RLU [1]: 1.33e+06 RLU
PBMC ADCC EC50 [1]: 0.0245 ng/mL
Kd [5]: 0.47 nM
Kd [6]: 1.99 nM
B9: 40769p2.2.E7 (antibody, V domains shown)
VH: EVQLLESGGGLVQPGGSLRLSCTGFGFTFTDARMSWVRQAPGKGLEWVADISSYGDNTYYADSVKGRFTISRDNSANTLYVQMNSLRAEDTAVYYCAKRMEREVMTIKLDYHAMDVWGQGTTVTVSS
VL: QSVLTQTPSVSGTPGQRVTISCSGIFNIRNYVSWYQQLPGTAPKLLIFKDDQRLSGVPDRFSGSGSGTSASLAISGLQSEDEADYYCAAWDIFLNVWVFGGGTKLTVL
notes: as for B1

Kd [7]: 10.9 nM
Kd [9]: 6.71 nM
B10: 40596p2.1.A2 IgG (antibody, V domains shown)
VH: EVQLLESGGGLVQPGGSLTLSCTASGLTFSSYAMNWVRQAPGKGLEWVATISSNSGSFRSYADSVKGRFTISRDNSKSTLYLQTNSLRAEDTALYYCTKDRSITANDFTMDVWGQGTTVTVSS
VL: EIVLTQSPGTLSVSPGERATLNCRASQTVGSRLAWYQQKPGQAPRLLIYGASSRATGIPARFSGSGSGTEFTLTISSLQSEDFAVYYCQQYYDWPPLTFGGGTKVEIK
notes: IgG

Lowest Remaining Target % [4]: 58%
Max RLU [4]: 2.18e+06 RLU
PBMC ADCC EC50 [4]: 0.167 ng/mL
Reporter cell ADCC EC50 [4]: ~9.74 ng/mL
ADCC EC50 [1]: ~9.74 ng/mL
Lowest Remaining Target % [1]: 58%
Max RLU [1]: 2.18e+06 RLU
PBMC ADCC EC50 [1]: 0.167 ng/mL
Kd [5]: 1.17 nM
Kd [6]: 3.64 nM
B11: 40769p2.2.C8 (antibody, V domains shown)
VH: EVQLLESGGGLVPPGGSLRLSCAASGFTFTNAWMSWVRQAPGKGLEWVSTIRSKTDGGTPYSADSVKGRFTISRDDSKNTLYLQMNSLRAEDTAVYYCAKYDYNYMDVWGQGTTVTVSS
VL: QSVLTQPPSASGTPGQRVTISCSGTTSNIGRNYVHWYQQFPGTAPKLLIYRNSQRPSGVPDRFSGSKSGTSASLAISGLQSEDEADYYCAAWDDSLNGWLFGGGTKLTVL
notes: as for B1
